# Results published in article doi:10.1101/2025.05.05.652248.
# Read-outs that look alike come from different tables or passages of the source.
# Experiments:
# [1] = target: MA2561 (AmzR, Archaeal Metabolite-sensing Zipper-like Regulator) of Methanosarcina acetivorans (Methanosarcina acetivorans); test: non-reducing SDS-PAGE
# [2] = target: MA2561 (AmzR, Archaeal Metabolite-sensing Zipper-like Regulator) of Methanosarcina acetivorans (Methanosarcina acetivorans); test: non-reducing SDS-PAGE; remark: listed apart in the source
substance,measurement,setting,value
"MA2561 (AmzR, Archaeal Metabolite-sensing Zipper-like Regulator) of Methanosarcina acetivorans (natural protein)",stoichiometry N,[1],2
same,stoichiometry N,[2],4
